The target of data set [1] is 16-aa ORF3a peptide (SARS-CoV-2 ORF3a residues 30-45) (SARS-CoV-2). Kind of data set: crystal structure. Conditions: both partners purified.
The data set “crystal structure” concerns the molecule itself. Kind of data set: crystal structure.
For data set [2], the target named is T1, 6xHis-SUMO-TRAF3 (residues 341-568) (human, UniProt Q13114 341-568).
T1 construct: also called SUMO-TRAF-C of TRAF3; TRAF3 TRAF-C domain
T1 sequence (looked up): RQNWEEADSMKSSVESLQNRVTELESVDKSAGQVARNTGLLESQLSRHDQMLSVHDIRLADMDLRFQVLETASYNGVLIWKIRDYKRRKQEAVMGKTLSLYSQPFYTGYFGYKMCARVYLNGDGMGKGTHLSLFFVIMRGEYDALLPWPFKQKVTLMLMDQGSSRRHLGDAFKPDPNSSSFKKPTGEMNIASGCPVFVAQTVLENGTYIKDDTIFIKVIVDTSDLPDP
Put plainly: fluorescence polarisation. As to conditions: both partners purified.

For data set [3], the target named is T2, 6xHis-SUMO-TRAF2 (residues 315-501) (human, UniProt Q12933 315-501).
T2 construct: also called SUMO-TRAF-C of TRAF2; TRAF2 TRAF-C domain
T2 sequence (looked up): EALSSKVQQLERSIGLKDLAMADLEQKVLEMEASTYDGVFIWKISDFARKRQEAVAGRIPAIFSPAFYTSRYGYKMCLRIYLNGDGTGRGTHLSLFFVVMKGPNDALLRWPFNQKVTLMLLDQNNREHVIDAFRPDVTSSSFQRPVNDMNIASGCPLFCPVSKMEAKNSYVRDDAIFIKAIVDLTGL
Put plainly: fluorescence polarisation. As to conditions: both partners purified.

Where no end group is shown, it is not given here. The star is where a group is joined. 5FAM = O=C1OC2(c3ccc(O)cc3Oc3cc(O)ccc32)c2ccc(C(=O)*)cc21; Ahx = NCCCCCC(=O)O

B1: TRAF2 TRAF-C domain (human TRAF2 residues 315-501), tag cleaved, for crystallization (domain or fragment, UniProt Q12933 315-501, looked up)
chain: EALSSKVQQLERSIGLKDLAMADLEQKVLEMEASTYDGVFIWKISDFARKRQEAVAGRIPAIFSPAFYTSRYGYKMCLRIYLNGDGTGRGTHLSLFFVVMKGPNDALLRWPFNQKVTLMLLDQNNREHVIDAFRPDVTSSSFQRPVNDMNIASGCPLFCPVSKMEAKNSYVRDDAIFIKAIVDLTGL
Consider B1, for which the binding result in data set [1] is listed as “binds”. Besides, the “stoichiometry N” value in the data set “crystal structure” came out at 3.

B2: 5-FAM-Ahx-PIQAS peptide (5-aa ORF3a peptide, residues 36-40) (peptide)
peptide: {5FAM-Ahx}-PIQAS
notes: also called 5-FAM-ORF3a peptide; fluorescently labeled PIQAS peptide
As to B2, the equilibrium dissociation constant (Kd) stood at 172 µM in data set [2] and 192 µM in data set [3].
